Test results from publication PMC9605926, “Safety of [^177Lu]Lu-NeoB treatment: a preclinical study characterizing absorbed dose and acute, early, and late organ toxicity” (European Journal of Nuclear Medicine and Molecular Imaging, 2022).
Several values for one entry are separate records, joined by “and”; a condition that tells them apart may be missing. Equal values may be shown once.

Tested on: healthy Balb/c mice
Experiment: Toxicity study, clinical chemistry
Assay type: in vivo, mouse
Conditions: 5, 11, 19, 30, 43 wk, mean±SD
Experimental: Five different experimental groups (10 male and 10 female healthy animals per group; n = 100) were included in the radiotoxicity study and treated as follows: control group 1: 3 × vehicle (PBS + kolliphor HS 15 (1 mg/mL)); control group 2: 3 × 1200 pmol [^175Lu]Lu-NeoB; treatment group 1: 3 × 40 MBq/400 pmol [^177Lu]Lu-NeoB; treatment group 2: 3 × 80 MBq/800 pmol [^177Lu]Lu-NeoB; and treatment group 3: 3 × 120 MBq/1200 pmol [^177Lu]Lu-NeoB.
Animals received 3 injections with an interval of 7 days between each injection.
In addition, the following clinical chemistry parameters were measured: sodium, potassium chloride, calcium, glucose, creatinine, urea, alanine aminotransferase (ALT), aspartate aminotransferase (AST), alkaline phosphatase (ALP), amylase, lipase, and cholesterol, using the Roche/Hitachi cobas c systems according to the standard protocol. To reach the volume necessary for measuring the clinical chemistry parameters, the blood plasma was diluted 3–5 times with demineralized water.

CC(C)CC(CC(C)C)NC(=O)[C@H](Cc1cnc[nH]1)NC(=O)CNC(=O)[C@@H](NC(=O)[C@H](C)NC(=O)[C@H](Cc1c[nH]c2ccccc12)NC(=O)[C@H](CCC(N)=O)NC(=O)[C@@H](Cc1ccccc1)NC(=O)COCC(=O)Nc1ccc(CNC(=O)CN2CCN(CC(=O)O)CCN(CC(=O)O)CCN(CC(=O)O)CC2)cc1)C(C)C [[^177Lu]Lu-NeoB, metal not drawn]
Alk. Phosphatase (female, treatment group 1): 104.70 ± 11.61 U/L and 85.71 ± 8.98 U/L and 68.75 ± 4.76 U/L and 75.00 ± 0.00 U/L and 86.67 ± 16.07 U/L | Urea (female, treatment group 1): 6.84 ± 1.27 mmol/L and 7.24 ± 1.10 mmol/L and 7.29 ± 1.04 mmol/L and 7.00 ± 1.78 mmol/L and 6.00 ± 0.00 mmol/L | Alk. Phosphatase (female, treatment group 2): 88.75 ± 7.50 U/L and 96.60 ± 11.73 U/L and 92.57 ± 8.90 U/L and 75.00 ± 8.16 U/L and 87.50 ± 8.66 U/L | Urea (female, treatment group 2): 8.13 ± 2.95 mmol/L and 9.48 ± 0.83 mmol/L and 7.41 ± 0.62 mmol/L and 6.64 ± 1.07 mmol/L and 7.50 ± 0.71 mmol/L | Alk. Phosphatase (female, treatment group 3): 96.00 ± 15.81 U/L and 93.00 ± 4.65 U/L and 81.43 ± 10.69 U/L and 90.00 ± 9.13 U/L and 110.00 ± 26.46 U/L | Urea (female, treatment group 3): 8.94 ± 1.32 mmol/L and 7.97 ± 1.26 mmol/L and 8.50 ± 1.80 mmol/L and 9.25 ± 2.40 mmol/L and 8.63 ± 2.56 mmol/L | Alk. Phosphatase (male, treatment group 1): 114.00 ± 8.28 U/L and 98.57 ± 4.04 U/L and 70.00 ± 0.00 U/L and 85.00 ± 10.00 U/L and 68.33 ± 20.82 U/L | Urea (male, treatment group 1): 7.44 ± 0.85 mmol/L and 6.60 ± 0.60 mmol/L and 7.00 ± 0.00 mmol/L and 7.50 ± 0.00 mmol/L | Alk. Phosphatase (male, treatment group 2): 75.00 ± 15.81 U/L and 112.40 ± 16.22 U/L and 96.86 ± 9.44 U/L and 85.00 ± 0.00 U/L and 80.00 ± 0.00 U/L | Urea (male, treatment group 2): 7.33 ± 1.26 mmol/L and 7.46 ± 1.14 mmol/L and 7.24 ± 1.41 mmol/L and 7.13 ± 0.85 mmol/L and 8.00 ± 1.35 mmol/L | Alk. Phosphatase (male, treatment group 3): 103.20 ± 13.73 U/L and 99.43 ± 5.59 U/L and 83.75 ± 7.50 U/L and 87.50 ± 8.66 U/L and 80.00 ± 17.80 U/L | Urea (male, treatment group 3): 7.59 ± 1.51 mmol/L and 6.77 ± 0.71 mmol/L and 7.25 ± 0.87 mmol/L and 6.50 ± 0.00 mmol/L and 6.75 ± 1.04 mmol/L
